These are literature values, as cited in article PMC7432558.

In the data set the target is TEAD1 (Homo sapiens) (UniProt P28347).
UniProt P28347, sequence (P28347 whole entry): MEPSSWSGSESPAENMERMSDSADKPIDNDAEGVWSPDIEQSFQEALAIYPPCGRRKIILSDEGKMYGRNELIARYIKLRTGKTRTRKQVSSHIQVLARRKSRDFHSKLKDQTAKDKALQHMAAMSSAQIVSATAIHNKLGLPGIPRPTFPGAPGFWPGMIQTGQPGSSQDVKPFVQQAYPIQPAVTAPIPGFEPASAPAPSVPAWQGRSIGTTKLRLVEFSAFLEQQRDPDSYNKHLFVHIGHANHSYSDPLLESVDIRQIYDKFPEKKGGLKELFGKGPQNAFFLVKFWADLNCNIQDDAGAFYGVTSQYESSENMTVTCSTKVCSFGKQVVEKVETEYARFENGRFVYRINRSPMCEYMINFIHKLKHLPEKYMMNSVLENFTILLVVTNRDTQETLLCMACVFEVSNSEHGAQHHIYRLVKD

One may read the Kd as the free concentration of one partner at which half of the binding sites on the other are occupied at equilibrium, for simple one-to-one binding. On to “YAP-derived cyclic peptide 81-100 (from UniProt P46937)”, for which the Kd is 15 nM.
